Values joined by “and” are separate entries in the source; they are usually repeats but may differ in a detail not shown here. Equal values may be shown once.

For experiment [1], the target named is Δ123A7-S chimera (H77c E2 Δ123 with 7 Cys-to-Ala mutations fused to the N terminus of DHBV S antigen) (hepatitis C virus genotype 1a, H77c | duck hepatitis B virus) (UniProt P27958). Put plainly: co-sedimentation + other: quantitative Western blot; gradient-purified VLP preparations; amount and proportion of E2 and S within VLPs quantified with Image Studio software; 4 consecutive preps. In general terms: A western blot detects proteins with antibodies after separation by electrophoresis.

The target in experiment [2] is RBDA7-S chimera (H77c E2 RBD with 7 Cys-to-Ala mutations fused to the N terminus of DHBV S antigen) (hepatitis C virus genotype 1a, H77c | duck hepatitis B virus) (UniProt P27958). Described as above.

In the case of “duck hepatitis B virus (DHBV) small surface antigen (S) (natural protein)”, the stoichiometry N (mol S per mol Δ123A7-S) in experiment [1] is 2 and 4. The stoichiometry N (mol S per mol RBDA7-S) in experiment [2] was 4 and 10 and 7.

The record behind these values is publication PMC8906423.
